# In patent publication USRE48558 (Genentech, dated 2021):
# Where no end group is shown, it is not given here.
# T1: extracellular domain of human CD79b fused to Fc (human, UniProt P40259 29-159)
# T1 construct: also called huCD79becd-Fc; huCD79b-Fc; not shown: Fc part of the fusion
# T1 sequence: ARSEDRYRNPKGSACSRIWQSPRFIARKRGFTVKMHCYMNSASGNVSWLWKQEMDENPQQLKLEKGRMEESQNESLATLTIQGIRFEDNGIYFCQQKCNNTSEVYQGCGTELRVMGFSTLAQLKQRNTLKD
# T2: human CD79b on the cell surface (human, UniProt P40259 29-229)
# T2 construct: In the Scatchard analysis the BJAB line also stably expressed cynomolgus CD79b; also called PRO36249; endogenous human CD79b on DoHH-2, BJAB and BJAB-luciferase cells
# T2 sequence: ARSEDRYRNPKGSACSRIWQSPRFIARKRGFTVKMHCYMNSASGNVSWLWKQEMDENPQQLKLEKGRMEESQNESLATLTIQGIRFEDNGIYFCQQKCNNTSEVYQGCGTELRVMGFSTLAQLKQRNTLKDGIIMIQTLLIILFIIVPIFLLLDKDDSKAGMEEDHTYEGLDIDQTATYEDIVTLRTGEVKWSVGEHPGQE
# T3: extracellular domain of human CD79b (human, UniProt P40259 29-159)
# T3 construct: also called huCD79becd; huCD79b-ecd
# T3 sequence: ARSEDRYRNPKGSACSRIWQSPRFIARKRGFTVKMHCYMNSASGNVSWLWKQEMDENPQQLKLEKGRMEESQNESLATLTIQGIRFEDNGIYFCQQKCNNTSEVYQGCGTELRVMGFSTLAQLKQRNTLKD
# T4: 16 amino acid peptide containing the epitope for MA79b (ARSEDRYRNPKGSACK) (human, also: biotinylated, site not given here)
# T4 construct: Synthetic
# T4 peptide: ARSEDRYRNPKGSACK
# Assays:
# [1] = target: T1, extracellular domain of human CD79b …; assay: SPR (Biacore), IgG compared with Fab, immobilized huCD79becd-Fc
# [2] = target: T2, human CD79b on the cell surface; assay: Scatchard analysis, 125I-labelled IgG competed with unlabelled IgG on BJAB cells stably expressing cynomolgus CD79b and endogenous human CD79b
# [3] = target: T3, extracellular domain of human CD79b; assay: SPR (Biacore), IgG, immobilized huCD79becd
# [4] = target: T2, human CD79b on the cell surface; assay: Scatchard analysis, IgG, BJAB cells stably expressing cynomolgus CD79b and endogenous human CD79b
# [5] = target: T2, human CD79b on the cell surface; assay: FACS on BJAB-luciferase cells, PE anti-human IgG detection
# [6] = target: T2, human CD79b on the cell surface; assay: FACS on BJAB-luciferase cells, PE anti-human detection
# [7] = target: T2, human CD79b on the cell surface; assay: FACS on DoHH-2 cells, Fab, PE anti-human kappa detection
# [8] = target: T3, extracellular domain of human CD79b; assay: phage selection, Fab on phage, plate-bound huCD79becd
# [9] = target: T3, extracellular domain of human CD79b; assay: SPR (Biacore), IgG, immobilized huCD79becd; reference not given
# [10] = target: T3, extracellular domain of human CD79b; assay: FACS analysis, IgG (data not shown); reference not given
# [11] = target: T4, 16 amino acid peptide containing the …; assay: SPR (Biacore), biotinylated peptide captured on streptavidin chip
# [12] = target: T1, extracellular domain of human CD79b …; assay: SPR (Biacore), Fab against MA79b Fab, immobilized huCD79becd-Fc
binder,measurement,setting,value
"murine anti-CD79b monoclonal antibody MA79b (antibody, V domains shown, Murine IgG; 125I-labelled in the Scatchard analysis; also called murine CD79b antibody; original mouse anti-CD79b monoclonal antibody) VL: DIVLTQSPASLAVSLGQRATISCKASQSVDYDGDSFLNWYQQKPGQPPKLFIYAASNLESGIPARFSGSGSGTDFTLNIHPVEEEDAATYYCQQSNEDPLTFGAGTELELKR VH: EVQLQQSGAELMKPGASVKISCKATGYTFSSYWIEWVKQRPGHGLEWIGEILPGGGDTNYNEIFKGKATFTADTSSNTAYMQLSSLTSEDSAVYYCTRRVPVYFDYWGQGTSVTVSS",fold avidity component (IgG against Fab of MA79b),[1],100 fold
same,Kd,[2],0.63 nM
"MA79b-grafted humanized antibody variant 18 (antibody, human IgG1, kappa, IgG; also called huMA79b.v18; MA79b.v18) light: DIQLTQSPSSLSASVGDRVTITCKASQSVDYDGDSFLNWYQQKPGKAPKLLIYAASNLESGVPSRFSGSGSGTDFTLTISSLQPEDFATYYCQQSNEDPLTFGQGTKVEIKRTVAAPSVFIFPPSDEQLKSGTASVVCLLNNFYPREAKVQWKVDNALQSGNSQESVTEQDSKDSTYSLSSTLTLSKADYEKHKVYACEVTHQGLSSPVTKSFNRGEC heavy: not shown",fold improvement in dimeric binding compared to variant 17,[3],2 fold
"MA79b-grafted humanized antibody variant 28 (antibody, human IgG1, kappa, IgG; also called huMA79b.v28) light: DIQLTQSPSSLSASVGDRVTITCKASQSVDYEGDSFLNWYQQKPGKAPKLLIYAASNLESGVPSRFSGSGSGTDFTLTISSLQPEDFATYYCQQSNEDPLTFGQGTKVEIKRTVAAPSVFIFPPSDEQLKSGTASVVCLLNNFYPREAKVQWKVDNALQSGNSQESVTEQDSKDSTYSLSSTLTLSKADYEKHKVYACEVTHQGLSSPVTKSFNRGEC heavy: not shown",Kd,[4],0.44 nM
"thio huMA79b.v18-HC(A118C)-MC-vcPAB-MMAE (antibody, human IgG1, kappa, MC-val-cit-PAB-MMAE on the engineered Cys at EU position 118 (sequential 118; Kabat 114), Cysteine engineered antibody drug conjugate) heavy: not shown light: DIQLTQSPSSLSASVGDRVTITCKASQSVDYDGDSFLNWYQQKPGKAPKLLIYAASNLESGVPSRFSGSGSGTDFTLTISSLQPEDFATYYCQQSNEDPLTFGQGTKVEIKRTVAAPSVFIFPPSDEQLKSGTASVVCLLNNFYPREAKVQWKVDNALQSGNSQESVTEQDSKDSTYSLSSTLTLSKADYEKHKVYACEVTHQGLSSPVTKSFNRGEC",binding result,[5],binds
"thio huMA79b.v18-HC(A118C)-MC-MMAF (antibody, human IgG1, kappa, MC-MMAF on the engineered Cys at EU position 118 (sequential 118; Kabat 114), Cysteine engineered antibody drug conjugate) heavy: not shown light: DIQLTQSPSSLSASVGDRVTITCKASQSVDYDGDSFLNWYQQKPGKAPKLLIYAASNLESGVPSRFSGSGSGTDFTLTISSLQPEDFATYYCQQSNEDPLTFGQGTKVEIKRTVAAPSVFIFPPSDEQLKSGTASVVCLLNNFYPREAKVQWKVDNALQSGNSQESVTEQDSKDSTYSLSSTLTLSKADYEKHKVYACEVTHQGLSSPVTKSFNRGEC",binding result,[5],binds
"thio huMA79b.v18-HC(A118C)-BMPEO-DM1 (antibody, human IgG1, kappa, BMPEO-DM1 on the engineered Cys at EU position 118 (sequential 118; Kabat 114), Cysteine engineered antibody drug conjugate; also called huMA79b.v18-HC(A118C) thioMAb-BMPEO-DM1) heavy: not shown light: DIQLTQSPSSLSASVGDRVTITCKASQSVDYDGDSFLNWYQQKPGKAPKLLIYAASNLESGVPSRFSGSGSGTDFTLTISSLQPEDFATYYCQQSNEDPLTFGQGTKVEIKRTVAAPSVFIFPPSDEQLKSGTASVVCLLNNFYPREAKVQWKVDNALQSGNSQESVTEQDSKDSTYSLSSTLTLSKADYEKHKVYACEVTHQGLSSPVTKSFNRGEC",binding result,[5],binds
"MA79b-grafted humanized antibody variant 17 (antibody, human IgG1, kappa, V domains shown, IgG; also called huMA79b.v17) VH: EVQLVESGGGLVQPGGSLRLSCAASGYTFSSYWIEWVRQAPGKGLEWIGEILPGGGDTNYNEIFKGRATFSADTSKNTAYLQMNSLRAEDTAVYYCTRRVPVYFDYWGQGTLVTVSS VL: DIQLTQSPSSLSASVGDRVTITCKASQSVDYDGDSFLNWYQQKPGKAPKLLIYAASNLESGVPSRFSGSGSGTDFTLTISSLQPEDFATYYCQQSNEDPLTFGQGTKVEIKR",binding result,[3],binds
"thio huMA79b.v28-HC(A118C)-MCvcPAB-MMAE (antibody, human IgG1, kappa, MC-val-cit-PAB-MMAE on the engineered Cys at EU position 118 (sequential 118; Kabat 114), Cysteine engineered antibody drug conjugate; also called thio huMA79b.v28-HC(A118C)-MC-val-cit-PAB-MMAE) heavy: not shown light: DIQLTQSPSSLSASVGDRVTITCKASQSVDYEGDSFLNWYQQKPGKAPKLLIYAASNLESGVPSRFSGSGSGTDFTLTISSLQPEDFATYYCQQSNEDPLTFGQGTKVEIKRTVAAPSVFIFPPSDEQLKSGTASVVCLLNNFYPREAKVQWKVDNALQSGNSQESVTEQDSKDSTYSLSSTLTLSKADYEKHKVYACEVTHQGLSSPVTKSFNRGEC",binding result,[6],binds
"MA79b-grafted humanized antibody variant 32 (antibody, human IgG1, kappa, V domains shown, also called huMA79b.v32; MA79b.v32) VH: EVQLVESGGGLVQPGGSLRLSCAASGYTFSSYWIEWVRQAPGKGLEWIGEILPGGGDTNYNEIFKGRATFSADTSKNTAYLQMNSLRAEDTAVYYCTRRVPIRLDYWGQGTLVTVSS VL: DIQLTQSPSSLSASVGDRVTITCKASQSVDYSGDSFLNWYQQKPGKAPKLFIYAASNLESGVPSRFSGSGSGTDFTLTISSLQPEDFATYYCQQSNEDPLTFGQGTKVEIKR",Kd,[4],0.24 nM
"thio huMA79b.v28-HC(A118C)-MC-MMAF (antibody, human IgG1, kappa, MC-MMAF on the engineered Cys at EU position 118 (sequential 118; Kabat 114), Cysteine engineered antibody drug conjugate) heavy: not shown light: DIQLTQSPSSLSASVGDRVTITCKASQSVDYEGDSFLNWYQQKPGKAPKLLIYAASNLESGVPSRFSGSGSGTDFTLTISSLQPEDFATYYCQQSNEDPLTFGQGTKVEIKRTVAAPSVFIFPPSDEQLKSGTASVVCLLNNFYPREAKVQWKVDNALQSGNSQESVTEQDSKDSTYSLSSTLTLSKADYEKHKVYACEVTHQGLSSPVTKSFNRGEC",binding result,[6],binds
"thio huMA79b.v28-HC(A118C)-BMPEO-DM1 (antibody, human IgG1, kappa, BMPEO-DM1 on the engineered Cys at EU position 118 (sequential 118; Kabat 114), Cysteine engineered antibody drug conjugate) heavy: not shown light: DIQLTQSPSSLSASVGDRVTITCKASQSVDYEGDSFLNWYQQKPGKAPKLLIYAASNLESGVPSRFSGSGSGTDFTLTISSLQPEDFATYYCQQSNEDPLTFGQGTKVEIKRTVAAPSVFIFPPSDEQLKSGTASVVCLLNNFYPREAKVQWKVDNALQSGNSQESVTEQDSKDSTYSLSSTLTLSKADYEKHKVYACEVTHQGLSSPVTKSFNRGEC",binding result,[6],binds
"huMA79b H3-10 (Fab) (Fab, name in Kabat numbering, V domains shown, Fab on phage in the selection; purified Fab in FACS; rest as huMA79b graft; also called H3-10 mutation) VH: EVQLVESGGGLVQPGGSLRLSCAASGYTFSSYWIEWVRQAPGKGLEWVGEILPGGGDTNYNEIFKGRFTISADTSKNTAYLQMNSLRAEDTAVYYCTRRVPIRLDYWGQGTLVTVSS VL: DIQMTQSPSSLSASVGDRVTITCKASQSVDYDGDSFLNWYQQKPGKAPKLLIYAASNLESGVPSRFSGSGSGTDFTLTISSLQPEDFATYYCQQSNEDPLTFGQGTKVEIKR",binding result,[7],binds
same,binding result,[8],binds
"MA79b-grafted humanized antibody (IgG) (antibody, V domains shown, Expressed as IgG; also called huMA79b graft; huMA79b-graft) VH: EVQLVESGGGLVQPGGSLRLSCAASGYTFSSYWIEWVRQAPGKGLEWVGEILPGGGDTNYNEIFKGRFTISADTSKNTAYLQMNSLRAEDTAVYYCTRRVPVYFDYWGQGTLVTVSS VL: DIQMTQSPSSLSASVGDRVTITCKASQSVDYDGDSFLNWYQQKPGKAPKLLIYAASNLESGVPSRFSGSGSGTDFTLTISSLQPEDFATYYCQQSNEDPLTFGQGTKVEIKR",fold loss of affinity,[9],> 50 fold
same,fold reduction in binding affinity,[10],> 100 fold
"MA79b-grafted humanized antibody variant L2/H3 (antibody, name in Kabat numbering, V domains shown, 125I-labelled in the Scatchard analysis; also called huMA79b L2/H3) VH: EVQLVESGGGLVQPGGSLRLSCAASGYTFSSYWIEWVRQAPGKGLEWVGEILPGGGDTNYNEIFKGRFTISADTSKNTAYLQMNSLRAEDTAVYYCTRRVPIRLDYWGQGTLVTVSS VL: DIQMTQSPSSLSASVGDRVTITCKASQSVDYDGDSFLNWYQQKPGKAPKLLIYAARKLGRGVPSRFSGSGSGTDFTLTISSLQPEDFATYYCQQSNEDPLTFGQGTKVEIKR",binding result,[11],binds
same,Kd,[2],0.52 nM
"huMA79b L2-2 (Fab) (Fab, name in Kabat numbering, V domains shown, Fab on phage in the selection; purified Fab in FACS and Biacore; rest as huMA79b graft; also called L2-2 mutation; MA79b-grafted humanized antibody variant L2-2) VH: EVQLVESGGGLVQPGGSLRLSCAASGYTFSSYWIEWVRQAPGKGLEWVGEILPGGGDTNYNEIFKGRFTISADTSKNTAYLQMNSLRAEDTAVYYCTRRVPVYFDYWGQGTLVTVSS VL: DIQMTQSPSSLSASVGDRVTITCKASQSVDYDGDSFLNWYQQKPGKAPKLLIYAARKLGRGVPSRFSGSGSGTDFTLTISSLQPEDFATYYCQQSNEDPLTFGQGTKVEIKR",fold improvement in monomeric binding compared to MA79b,[12],5 fold
"huMA79b graft variant H1-1 (Fab) (Fab, name in Kabat numbering, V domains shown, Fab on phage in the selection; purified Fab in FACS; rest as huMA79b graft; also called H1-1 mutation) VH: EVQLVESGGGLVQPGGSLRLSCAASGYPFNRYWINWVRQAPGKGLEWVGEILPGGGDTNYNEIFKGRFTISADTSKNTAYLQMNSLRAEDTAVYYCTRRVPVYFDYWGQGTLVTVSS VL: DIQMTQSPSSLSASVGDRVTITCKASQSVDYDGDSFLNWYQQKPGKAPKLLIYAASNLESGVPSRFSGSGSGTDFTLTISSLQPEDFATYYCQQSNEDPLTFGQGTKVEIKR",binding result,[7],binds
same,binding result,[8],binds
